Article PMC2173498 (The Journal of Cell Biology, 2002)

Target: the molecule itself
Assay: SEC

B1: Nucleoplasmin-M9 (other)
chain: MASTVSNTSKLEKPVSLIWGCELNEQDKTFEFKVEDDEEKCEHQLALRTVCLGDKAKDEFNIVEIVTQEEGAEKSVPIATLKPSILPMATMVGIELTPPVTFRLKAGSGPLYISGQHVAMEEDYSWAEEEDEGEAEGEEEEEEEEDQESFGNYNNQSSNFGPMKGGNFGGRSSGPYGGGGQYFAKPRNQGGYG
For B1, which “stoichiometry N” value is on record?
The value was 10.
